The assay deals with T1, TNF (125I-TNF) (human, UniProt P01375 77-233, limits assumed, radioiodinated (125I) where used as labeled ligand).
T1 construct: It may be the same FLAG-TNFα as m1; also called 125I-labeled TNF
Kind of assay: TNF binding assay on product of transfected COS-7 cells.

Here are results for one molecule from patent publication US20030082736A1 (IMMUNEX, published 2003).

T1 sequence (P01375 77-233 limits assumed): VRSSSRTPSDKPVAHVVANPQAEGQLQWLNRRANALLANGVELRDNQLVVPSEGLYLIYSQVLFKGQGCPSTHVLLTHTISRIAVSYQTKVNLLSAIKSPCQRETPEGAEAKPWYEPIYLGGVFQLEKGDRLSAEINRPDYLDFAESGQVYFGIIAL

B1: soluble huTNF-RΔ142 (receptor)
chain: LPAQVAFTPYAPEPGSTCRLREYYDQTAQMCCSKCSPGQHAKVFCTKTSDTVCDSCEDSTYTQLWNWVPECLSCGSRCSSDQVETQACTREQNRICTCRPGWYCALSKQEGCRLCAPLRKCRPGFGVARPGTETSDVVCKPC
notes: Transfected into COS-7 cells; also called huTNF-R?142; product of psolTNFRΔ142/CAVNOT
In the case of B1, the binding result is given as “no binding”.
